From patent US5770691A, “Discriminatory substrates for MMP hydrolysis” (Regents of the University of Minnesota, priority 1995, dated 1998)

Columns and labels:
Assay type in all cases: biochemical, human
[1] = substrate: CCC[C@H](NC(=O)[C@H](C)NC(=O)[C@H](Cc1ccc(O)cc1)NC(=O)[C@@H]1CCCN1C(=O)[C@H](CCCCN)NC(=O)[C@@H]1CCCN1C(=O)[C@H](CCCNC(=N)N)NC(=O)Cc1cc(=O)oc2cc(OC)ccc12)C(=O)N[C@@H](Cc1c[nH]c2ccccc12)C(=O)N[C@@H](CCSC)C(=O)N[C@@H](CCCCNc1ccc([N+](=O)[O-])cc1[N+](=O)[O-])C(N)=O; assay: Fluorometric hydrolysis of synthetic Mca/Lys(Dnp) substrates by MMP-1; conditions: other: MMP-1, 37° C., pH 7.5
Text: (§1) All MMPs were purified in zymogen form. ProMMP-1 (Suzuki et al., Biochem., 29, 10261 (1990)), proMMP-2 (Okada et al., Eur. J. Biochem., 194, 721 (1990)), and proMMP-3 (Ito et al., Arch. Biochem. Biophys., 267, 211 (1988)) were purified from the culture medium of human rheumatoid synovial cells stimulated with rabbit macrophage-conditioned medium. ProMMP-9 was purified from the culture medium of HT-1080 cells as described in Morodomi et al., Biochem. J., 285, 603 (1992). ProMMP-2 and proMMP-9 were activated by reacting with 1 mM 4-aminophenylmercuric acetate at 37° C. for 45 minutes and 32 hours, respectively. ProMMP-1 was activated by reacting with 1 mM 4-aminophenylmercuric acetate and an equimolar amount of MMP-3 at 37° C. for 6 hours. After activation, MMP-3 was completely removed from MMP-1 by affinity chromatography using an anti-MMP-3 IgG Affi-Gel 10 column. The resin, Affi-Gel 10 (Biorad, Emoryville, Calif.), was coupled to anti-MMP-3 IgG (Okada et al., Annals of Rheumat. Dis., 48, 645 (1989)) per the manufacturer's protocol. Pro-MMP-3 was activated by reacting with 5 μg/mL chymotrypsin at 37° C. for 2 hours. Chymotrypsin was inactivated with 2 mM diisopropylfluorophosphate. The amounts of active MMP-1, MMP-2, and MMP-3 were determined by titration with tissue inhibitor of metalloproteinase-1(TIMP1) over a concentration range of 0.1-3 μg/mL, while the amount of active MMP-9 was determined by titration with TIMP-2 (0.1-3 μg/mL). TIMP-1 was isolated from the medium of HT-1080 cells as described in Morodomi et al., Biochem J., 285, 603 (1992).
(§2) Substrates were prepared as 10 mM stock solutions in dimethylsulfoxide (DMSO). Fluorescent assays were performed at λex =325 nm and λem =393 nm, which should encounter no interference from Trp residues, using a Hitachi fluorescence spectrophotometer F-3010. Initial total hydrolysis assays were run at a substrate concentration of […] to avoid filtering effects. The change in fluorescence at this concentration was 110 based on total hydrolysis of 1 μM substrate. A typical assay was carried out by incubating 100 μL of various concentrations of a substrate with 10 μL of an enzyme solution (2-20 nM) in 50 mM Tris-HCl, pH 7.5, 0.15M NaCl, 10 mM CaCl2, 0.05% Brij 35, 0.02% NaN3. The reaction was stopped by addition of 900 μl of 3% (v/v) glacial acetic acid. MMP-3 activity at pH 6.0 was measured in 50 mM sodium acetate buffer, pH 6.0, instead of Tris-HCl buffer. The amount of substrate hydrolysis was calculated based on the fluorescence values of the Mca-Arg-Pro-Lys-Pro-Gln standard solution after substraction of the reaction blank value (stopping solution added before the enzyme). Individual kinetic parameters (kcat and KM) were determined over a substrate concentration range of 2.5-75 μM and calculated by double reciprocal plots.

[2] = substrate: COc1ccc2c(CC(=O)N3CCC[C@H]3C(=O)N[C@@H](CCCCN)C(=O)N3CCC[C@H]3C(=O)N[C@@H](CCC(N)=O)C(=O)N[C@@H](CCC(N)=O)C(=O)N[C@@H](Cc3ccccc3)C(=O)N[C@@H](Cc3ccccc3)C(=O)NCC(=O)N[C@@H](CC(C)C)C(=O)N[C@@H](CCCCNc3ccc([N+](=O)[O-])cc3[N+](=O)[O-])C(=O)NCC(=O)O)cc(=O)oc2c1; assay: as above; conditions: other: MMP-1, 37° C., pH 7.5
Text: as §1, §2

[3] = substrate: CCC[C@H](NC(=O)[C@H](C)NC(=O)[C@H](Cc1ccc(O)cc1)NC(=O)[C@@H]1CCCN1C(=O)[C@H](CCCCN)NC(=O)[C@@H]1CCCN1C(=O)[C@H](CCCNC(=N)N)NC(=O)Cc1cc(=O)oc2cc(OC)ccc12)C(=O)N[C@@H](Cc1c[nH]c2ccccc12)C(=O)N[C@@H](CCSC)C(=O)N[C@@H](CCCCNc1ccc([N+](=O)[O-])cc1[N+](=O)[O-])C(N)=O; assay: Fluorometric hydrolysis of synthetic Mca/Lys(Dnp) substrates by MMP-2; conditions: other: MMP-2, 37° C., pH 7.5
Text: as §1, §2

[4] = substrate: COc1ccc2c(CC(=O)N3CCC[C@H]3C(=O)N[C@@H](CCCCN)C(=O)N3CCC[C@H]3C(=O)N[C@@H](CCC(N)=O)C(=O)N[C@@H](CCC(N)=O)C(=O)N[C@@H](Cc3ccccc3)C(=O)N[C@@H](Cc3ccccc3)C(=O)NCC(=O)N[C@@H](CC(C)C)C(=O)N[C@@H](CCCCNc3ccc([N+](=O)[O-])cc3[N+](=O)[O-])C(=O)NCC(=O)O)cc(=O)oc2c1; assay: as above; conditions: other: MMP-2, 37° C., pH 7.5
Text: as §1, §2

B1: MMP-1 (Homo sapiens) (protein)
chain: FVLTEGNPRWEQTHLTYRIENYTPDLPRADVDHAIEKAFQLWSNVTPLTFTKVSEGQADIMISFVRGDHRDNSPFDGPGGNLAHAFQPGPGIGGDAHFDEDERWTNNFREYNLHRVAAHELGHSLGLSHSTDIGALMYPSYTFSGDVQLAQDDIDGIQAIYGRSQNPVQPIGPQTPKACDSKLTFDAITTIRGEVMFFKDRFYMRTNPFYPEVELNFISVFWPQLPNGLEAAYEFADRDEVRFFKGNKYWAVQGQNVLHGYPKDIYSSFGFPRTVKHIDAALSEENTGKTYFFVANKYWRYDEYKRSMDPGYPKMIAHDFPGIGHKVDAVFMKDGFFYFFHGTRQYKFDPKTKRILTLQKANSWFNCRKN
notes: made in house; host or cells: native secreted protein purified from culture medium of human rheumatoid synovial cells
Km [1]: 142 µM
kcat [1]: 0.15 S^-1
kcat/Km [1]: 1,060 S^-1 M^-1
Km [2]: 16.6 µM
kcat [2]: 0.04 S^-1
kcat/Km [2]: 2,510 S^-1 M^-1

B2: MMP-2 (Homo sapiens) (protein)
chain: YNFFPRKPKWDKNQITYRIIGYTPDLDPETVDDAFARAFQVWSDVTPLRFSRIHDGEADIMINFGRWEHGDGYPFDGKDGLLAHAFAPGTGVGGDSHFDDDELWTLGEGQVVRVKYGNADGEYCKFPFLFNGKEYNSCTDTGRSDGFLWCSTTYNFEKDGKYGFCPHEALFTMGGNAEGQPCKFPFRFQGTSYDSCTTEGRTDGYRWCGTTEDYDRDKKYGFCPETAMSTVGGNSEGAPCVFPFTFLGNKYESCTSAGRSDGKMWCATTANYDDDRKWGFCPDQGYSLFLVAAHEFGHAMGLEHSQDPGALMAPIYTYTKNFRLSQDDIKGIQELYGASPDIDLGTGPTPTLGPVTPEICKQDIVFDGIAQIRGEIFFFKDRFIWRTVTPRDKPMGPLLVATFWPELPEKIDAVYEAPQEEKAVFFAGNEYWIYSASTLERGYPKPLTSLGLPPDVQRVDAAFNWSKNKKTYIFAGDKFWRYNEVKKKMDPGFPKLIADAWNAIPDNLDAVVDLQGGGHSYFFKGAYYLKLENQSLKSVKFGSIKSDWLGC
notes: as for B1
Km [3]: 50 µM
kcat [3]: 2.70 S^-1
kcat/Km [3]: 54,000 S^-1 M^-1
Km [4]: 100 µM
kcat [4]: 1.07 S^-1
kcat/Km [4]: 10,800 S^-1 M^-1
